This note sets out measurements from paper doi:10.1101/2022.06.27.497739.

The target in assay [1] is Rpt1-I191AzF-Cy3 base (budding yeast (S. cerevisiae)) (UniProt P33299). The assay is described as follows: FRET or BRET. A general note: In BRET a luciferase serves as donor, and the signal depends on an acceptor being close.
For assay [2] the target is unchanged. The assay can be described thus: FRET or BRET. The source holds these as a separate data set.

Read-outs that look alike come from different tables or passages of the source.

On to “polyubiquitinated titin-I27^V15P-Tail substrate labeled with Cy5 on its unstructured initiation domain (from UniProt P0CG63 1-76)”, for which the time constant (τ) of tail engagement in assay [1] came to 10.4 s; in assay [2], 16.4 s.
